Assay [1] deals with T1, YFP-ΔGL1,2 Pins-CFP fusion protein (Pins FRET biosensor) (Drosophila, UniProt Q9VB22 1-658, R486F | R570F).
T1 sequence (looked up): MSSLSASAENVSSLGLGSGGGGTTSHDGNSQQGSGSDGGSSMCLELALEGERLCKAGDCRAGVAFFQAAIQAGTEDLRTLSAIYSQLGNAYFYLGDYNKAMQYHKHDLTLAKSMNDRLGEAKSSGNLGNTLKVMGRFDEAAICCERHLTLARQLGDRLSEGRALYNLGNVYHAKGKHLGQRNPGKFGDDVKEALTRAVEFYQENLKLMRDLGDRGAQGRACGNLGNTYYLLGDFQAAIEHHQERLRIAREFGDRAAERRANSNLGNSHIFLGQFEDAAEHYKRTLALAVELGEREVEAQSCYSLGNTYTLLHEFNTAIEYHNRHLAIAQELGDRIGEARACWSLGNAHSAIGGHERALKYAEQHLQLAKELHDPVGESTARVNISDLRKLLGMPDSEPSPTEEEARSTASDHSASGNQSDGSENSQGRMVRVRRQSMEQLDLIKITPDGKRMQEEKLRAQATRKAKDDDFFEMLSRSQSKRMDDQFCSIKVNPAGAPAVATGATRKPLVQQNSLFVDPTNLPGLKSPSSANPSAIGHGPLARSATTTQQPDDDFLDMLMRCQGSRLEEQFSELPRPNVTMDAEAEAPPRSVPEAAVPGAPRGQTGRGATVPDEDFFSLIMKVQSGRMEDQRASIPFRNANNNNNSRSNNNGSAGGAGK
In words: FRET or BRET. For orientation: In BRET a luciferase serves as donor, and the signal depends on an acceptor being close.

In assay [2] the target is tetramethylrhodamine labeled Mud peptide (TMR-Mud) (Drosophila). In words: fluorescence polarisation. A general note: Fluorescence polarisation rises when a labelled molecule tumbles more slowly, as on binding a larger partner.

B1: heterotrimeric G-protein alpha subunit Gαi, GDP-loaded (natural protein, UniProt P20353 1-355, looked up)
chain: MGCAVSTARDKEAIERSKNIDRALRAEGERAASEVKLLLLGAGESGKSTIVKQMKIIHDTGYSQEECEEYRRVVFSNTVQSLMVIIRAMGRLKIEFADPSRTDIARQFFTHASAADEGILLPEIVLLMKKLWADGGVQQSFARSREYQLNDSAGYYLNSLDRIAQPNYIPTQQDVLRTRVKTTGIIETHFSCKQLHFKLFDVGGQRSERKKWIHCFEGVTAIIFCVALSGYDLVLAEDEEMNRMIESLKLFDSICNSKWFVETSIILFLNKKDLFEEKIKRSPLTICFPEYTGTNTFEEAANYIRMKFENLNKRKDQKEIYTHLTCATDTNNVKFVFDAVTDVIIKNNLKQIGLF
Broadly, the Kd is the constant that tells how readily two partners part at equilibrium. A low value points to a tighter complex. In turn, B1 gave a Kd in assay [1] of 3.4 ± 0.3 µM.

B2: ΔGL1,2 Pins (R486F and R570F) (natural protein)
chain: MSSLSASAENVSSLGLGSGGGGTTSHDGNSQQGSGSDGGSSMCLELALEGERLCKAGDCRAGVAFFQAAIQAGTEDLRTLSAIYSQLGNAYFYLGDYNKAMQYHKHDLTLAKSMNDRLGEAKSSGNLGNTLKVMGRFDEAAICCERHLTLARQLGDRLSEGRALYNLGNVYHAKGKHLGQRNPGKFGDDVKEALTRAVEFYQENLKLMRDLGDRGAQGRACGNLGNTYYLLGDFQAAIEHHQERLRIAREFGDRAAERRANSNLGNSHIFLGQFEDAAEHYKRTLALAVELGEREVEAQSCYSLGNTYTLLHEFNTAIEYHNRHLAIAQELGDRIGEARACWSLGNAHSAIGGHERALKYAEQHLQLAKELHDPVGESTARVNISDLRKLLGMPDSEPSPTEEEARSTASDHSASGNQSDGSENSQGRMVRVRRQSMEQLDLIKITPDGKRMQEEKLRAQATRKAKDDDFFEMLSRSQSKRMDDQFCSIKVNPAGAPAVATGATRKPLVQQNSLFVDPTNLPGLKSPSSANPSAIGHGPLARSATTTQQPDDDFLDMLMRCQGSRLEEQFSELPRPNVTMDAEAEAPPRSVPEAAVPGAPRGQTGRGATVPDEDFFSLIMKVQSGRMEDQRASIPFRNANNNNNSRSNNNGSAGGAGK
B2 showed a Pins activation (%) in assay [2] of 85%.
